Experimental data published in patent US20260166139A1.
“And” between values parts separate entries of the source, which are not always exact repeats. Equal entries are not always repeated.

Tests used:
CTLA4-mFc [1] = assay: competitive ELISA, CTLA4-mFc coated, competitor B7/2-His; antibody 3 µg/ml diluted 1:729
[2] = molecular target: monkey CTLA4-hFc (monkey); assay: ELISA, coat monkey CTLA4-hFc 0.25 ug/ml; antibody 1:729 (start 1 ug/ml)
human CTLA4 (human) [3] = molecular target: human CTLA4 (human) (UniProt P16410); assay: ELISA, coat human CTLA4 0.5 ug/ml; antibody 1:9 (start 1 ug/ml)
murine CTLA4 (murine) = murine CTLA4 (murine) (UniProt P09793); assay: ELISA on coated CTLA4, source Mouse (row of 8D2)
human CTLA4 (human) [4] = molecular target: human CTLA4 (human) (UniProt P16410); assay: ELISA on coated CTLA4, source Human (row of 8D2H2L15)
CTLA4-mFc [5] = assay: competitive ELISA, CTLA4-mFc coated, competitor B7/2-His; antibody 1.5 µg/ml diluted 1:27
human CTLA4 (human) [6] = molecular target: human CTLA4 (human) (UniProt P16410); assay: ELISA, coat human CTLA4 0.5 ug/ml; antibody 1:3 (start 1 ug/ml)
CTLA4-mFc [7] = assay: competitive ELISA, competitor B7-1; control run with 8D2H1L1
human CTLA4 (human) [8] = molecular target: human CTLA4 (human) (UniProt P16410); assay: ELISA, coat CTLA4 0.5 ug/ml; antibody 1:243 (start 1 ug/ml)
CTLA4-mFc [9] = assay: competitive ELISA, CTLA4-mFc coated, competitor B7/2-His; antibody 0 (no antibody)
CTLA4-mFc [10] = assay: competition ELISA, coat B7/1-hFc 0.2 ug/ml (competitor), CTLA4-mFc 0.3 ug/ml detected; antibody 0 (no antibody)
CTLA4-mFc [11] = assay: competitive ELISA, B7/1-hFc coated (competitor), CTLA4-mFc added; antibody 5 µg/ml diluted 1:729
human CTLA4 (human) [12] = molecular target: human CTLA4 (human) (UniProt P16410); assay: ELISA, coat human CTLA4 0.5 ug/ml; antibody 1:243 (start 1 ug/ml)
CTLA4-mFc [13] = assay: competitive ELISA, competitor B7-2; control run with 8D2H3L3
human CTLA4 (human) [14] = molecular target: human CTLA4 (human) (UniProt P16410); assay: ELISA, coat CTLA4 0.5 ug/ml; antibody 1:27 (start 1 ug/ml)
human CTLA4 (human) [15] = molecular target: human CTLA4 (human) (UniProt P16410); assay: ELISA, coat human CTLA4 0.5 ug/ml; antibody 1:243 (start 1 ug/ml); remark: listed apart in the source
CTLA4-mFc [16] = assay: competitive ELISA, CTLA4-mFc coated, competitor B7/2-His; antibody 0 (no antibody); remark: listed apart in the source
human CTLA4 (human) [17] = molecular target: human CTLA4 (human) (UniProt P16410); assay: ELISA on coated CTLA4, source Human (row of 8D2H2L17)
[18] = molecular target: monkey CTLA4-hFc (monkey); assay: ELISA on coated CTLA4, source Monkey (row of 8D2H3L3)
human CTLA4 (human) [19] = molecular target: human CTLA4 (human) (UniProt P16410); assay: ELISA on coated CTLA4, source Human (row of 8D2H3L3)
CTLA4-mFc [20] = assay: competition ELISA, coat B7/1-hFc 0.2 ug/ml (competitor), CTLA4-mFc 0.3 ug/ml detected; antibody 1:81 (start 3 ug/ml)
CTLA4-mFc [21] = assay: competitive ELISA, CTLA4-mFc coated, competitor B7/2-His; antibody 3 µg/ml
[22] = molecular target: CTLA4 antigen (NCBI Gene ID: 1493) obtained by TEV protease cleavage of CTLA4-mFc (Homo sapiens (Human)) (UniProt P16410); assay: BLI (Fortebio), antibody on AR2G sensor, CTLA4 in solution
CTLA4-mFc [23] = assay: competitive ELISA, CTLA4-mFc coated, competitor B7/2-His; antibody 0 (no antibody); remark: listed apart in the source
CTLA4-mFc [24] = assay: competitive ELISA, B7/1-hFc coated (competitor), CTLA4-mFc added; antibody 5 µg/ml
[25] = molecular target: monkey CTLA4-hFc (monkey); assay: ELISA, coat monkey CTLA4-hFc 0.25 ug/ml; antibody 1:3 (start 1 ug/ml)

CTLA4-mFc, sequence (chain, as listed by the source limits assumed): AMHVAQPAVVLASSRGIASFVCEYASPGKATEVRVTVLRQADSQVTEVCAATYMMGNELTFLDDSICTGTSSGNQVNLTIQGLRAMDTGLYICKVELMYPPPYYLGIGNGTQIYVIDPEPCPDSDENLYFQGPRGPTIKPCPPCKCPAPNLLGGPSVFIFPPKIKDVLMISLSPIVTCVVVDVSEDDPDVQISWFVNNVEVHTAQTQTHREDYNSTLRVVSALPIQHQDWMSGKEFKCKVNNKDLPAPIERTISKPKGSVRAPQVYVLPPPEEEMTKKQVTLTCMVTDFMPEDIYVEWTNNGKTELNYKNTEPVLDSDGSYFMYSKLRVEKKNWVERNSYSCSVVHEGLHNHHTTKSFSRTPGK
CTLA4 antigen (NCBI Gene ID: 1493) obtained by TEV protease cleavage of CTLA4-mFc (Homo sapiens (Human)), sequence (P16410 37-161 limits assumed): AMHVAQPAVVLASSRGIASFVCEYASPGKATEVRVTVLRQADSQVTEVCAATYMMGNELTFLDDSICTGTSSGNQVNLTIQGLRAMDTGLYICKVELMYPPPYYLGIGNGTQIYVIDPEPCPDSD
human CTLA4 (human), sequence (P16410 36-161 limits assumed): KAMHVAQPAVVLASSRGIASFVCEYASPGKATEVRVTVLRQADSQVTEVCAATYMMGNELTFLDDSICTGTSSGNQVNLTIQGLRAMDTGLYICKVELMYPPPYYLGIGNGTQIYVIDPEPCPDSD
control antibody 11.2.1, sequence (VH): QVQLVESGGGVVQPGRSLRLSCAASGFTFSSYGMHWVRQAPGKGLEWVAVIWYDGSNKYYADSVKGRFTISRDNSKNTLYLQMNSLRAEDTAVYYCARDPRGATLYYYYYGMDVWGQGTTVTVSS
control antibody 11.2.1, sequence (VL): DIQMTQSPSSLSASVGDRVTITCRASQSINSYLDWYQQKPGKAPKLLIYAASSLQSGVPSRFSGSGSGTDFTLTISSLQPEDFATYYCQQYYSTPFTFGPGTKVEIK

absorbance at 450 nm (CTLA4-mFc [1]): 1.36 and 1.23
absorbance at 450 nm [2]: 0.082 and 0.094
absorbance at 450 nm (human CTLA4 (human) [3]): 3.21 and 3.19
EC50 (murine CTLA4 (murine)): 0.023 nM
EC50 (human CTLA4 (human) [4]): 0.075 nM
absorbance at 450 nm (CTLA4-mFc [5]): 0.622 and 0.529
absorbance at 450 nm (human CTLA4 (human) [6]): 3.5 and 3.48
EC50 (CTLA4-mFc [7]): 1.69 nM
absorbance at 450 nm (human CTLA4 (human) [8]): 0.75 and 0.79
absorbance at 450 nm (CTLA4-mFc [9]): 1.19 and 1.1
absorbance at 450 nm (CTLA4-mFc [10]): 0.826 and 0.55
absorbance at 450 nm (CTLA4-mFc [11]): 0.909 and 0.793
absorbance at 450 nm (human CTLA4 (human) [12]): 0.536 and 0.552
EC50 (CTLA4-mFc [13]): 0.172 nM
absorbance at 450 nm (human CTLA4 (human) [14]): 2.13 and 2.28
absorbance at 450 nm (human CTLA4 (human) [15]): 0.223 and 0.219
absorbance at 450 nm (CTLA4-mFc [16]): 0.91 and 0.8
EC50 (human CTLA4 (human) [17]): 0.075 nM
EC50 [18]: 0.075 nM
EC50 (human CTLA4 (human) [19]): 0.09 nM
absorbance at 450 nm (CTLA4-mFc [20]): 0.65 and 0.613
absorbance at 450 nm (CTLA4-mFc [21]): 0.492 and 0.442
Kd [22]: 0.903 nM
koff [22]: 0.000349 s⁻¹
kon [22]: 387000 M⁻¹ s⁻¹
absorbance at 450 nm (CTLA4-mFc [23]): 0.987 and 0.819
absorbance at 450 nm (CTLA4-mFc [24]): 0.06
absorbance at 450 nm [25]: 1.54 and 1.46
Substance: control antibody 11.2.1
